Our source for the Kd, koff and kon values is US20200277401A1 (PANGEN BIOTECH, published 2020).

In the test the target is T1, recombinant coagulation factor VIII protein (Homo sapiens (Human), UniProt P00451 20-2351).
T1 construct: Recombinant protein isolated from a cell culture solution; also called recombinant coagulation factor FVIII; FVIII
T1 sequence: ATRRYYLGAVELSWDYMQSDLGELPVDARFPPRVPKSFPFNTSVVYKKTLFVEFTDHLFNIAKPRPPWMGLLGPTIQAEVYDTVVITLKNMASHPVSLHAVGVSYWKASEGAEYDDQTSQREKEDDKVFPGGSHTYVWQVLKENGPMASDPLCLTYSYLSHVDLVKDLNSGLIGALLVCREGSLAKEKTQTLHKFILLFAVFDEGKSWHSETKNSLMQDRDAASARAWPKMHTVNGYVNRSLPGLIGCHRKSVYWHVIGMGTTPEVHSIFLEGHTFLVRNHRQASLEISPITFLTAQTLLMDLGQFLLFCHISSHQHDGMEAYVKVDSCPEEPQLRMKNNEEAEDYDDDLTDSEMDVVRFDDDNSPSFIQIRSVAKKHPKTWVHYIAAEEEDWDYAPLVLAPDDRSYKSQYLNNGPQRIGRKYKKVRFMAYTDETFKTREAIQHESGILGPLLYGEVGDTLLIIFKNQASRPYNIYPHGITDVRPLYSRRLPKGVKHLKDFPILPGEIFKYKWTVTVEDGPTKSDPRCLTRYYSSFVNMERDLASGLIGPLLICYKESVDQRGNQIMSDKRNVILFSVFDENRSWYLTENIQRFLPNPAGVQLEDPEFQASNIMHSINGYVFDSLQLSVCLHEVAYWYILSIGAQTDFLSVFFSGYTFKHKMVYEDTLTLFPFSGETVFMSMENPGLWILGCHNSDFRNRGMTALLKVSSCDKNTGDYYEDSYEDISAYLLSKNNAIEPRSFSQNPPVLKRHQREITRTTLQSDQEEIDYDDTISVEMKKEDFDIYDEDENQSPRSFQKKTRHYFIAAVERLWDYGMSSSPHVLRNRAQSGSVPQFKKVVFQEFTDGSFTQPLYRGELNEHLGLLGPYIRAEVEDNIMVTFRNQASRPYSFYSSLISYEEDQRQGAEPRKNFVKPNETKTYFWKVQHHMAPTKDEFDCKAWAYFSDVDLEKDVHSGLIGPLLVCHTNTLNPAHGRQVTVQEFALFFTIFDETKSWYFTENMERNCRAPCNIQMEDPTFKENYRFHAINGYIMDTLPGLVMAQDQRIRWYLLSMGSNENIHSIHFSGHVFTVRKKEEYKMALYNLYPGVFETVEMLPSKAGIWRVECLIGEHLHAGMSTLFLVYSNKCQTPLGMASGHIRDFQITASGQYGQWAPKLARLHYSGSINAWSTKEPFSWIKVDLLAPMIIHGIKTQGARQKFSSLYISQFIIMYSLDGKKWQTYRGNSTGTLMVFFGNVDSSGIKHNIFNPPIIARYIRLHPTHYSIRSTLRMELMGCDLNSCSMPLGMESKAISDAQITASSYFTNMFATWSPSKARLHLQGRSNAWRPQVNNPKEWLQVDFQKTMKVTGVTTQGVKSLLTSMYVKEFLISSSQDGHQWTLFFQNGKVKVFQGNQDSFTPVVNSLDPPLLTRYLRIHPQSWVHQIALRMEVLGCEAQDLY
Briefly: SPR, Biacore T200, FVIII immobilised on CM5 chip, antibody as analyte, 1:1 model. Here is the method: The kinetic affinity (Ka, Kd, KD) between the purified antibody protein and the recombinant coagulation factor FVIII protein through antigen-antibody reaction was measured by a SPR (surface plasmon resonance) method.
The CM5 chip was mounted on a Biacore T200 instrument, and the recombinant coagulation factor FVIII protein as a ligand was diluted in a 10 mM sodium acetate buffer (pH 5.0) and injected into a sample channel for 10 minutes for immobilization. The purified antibody protein, as the analyte, was prepared at a concentration of 2 μM by diluting with a buffer and was then serially diluted to ten concentrations (0.0039, 0.0078, 0.015, 0.031, 0.062, 0.125, 0.25, 0.5, 1, 2 μM). Association and dissociation times were set to 3 minutes and 4 minutes, respectively, and association and dissociation were measured.
BIAevaluation analysis software was used to analyze the kinetic affinity of the purified antibody protein and the recombinant coagulation factor FVIII protein. The association force, dissociation force and dissociation constant were calculated as follows by applying ten concentrations of association/dissociation data to a 1:1 kinetic binding model (A+B↔AB).

B1: anti-FVIII antibody (purified antibody protein produced by the ADBA1013-14 CHO cell line from the heavy and light chain genes of hybridoma clone 3F6-2-5) (antibody, mouse IgG1, V domains shown)
VH: EVKIEESGGGLVQPGGSMKLSCAASGFTFSDAWMDWVRQSPEKGLEWVAEIRSKAKNHATNYAESVKGRFTISRDDSKSRVYLQMNTLRAEDTGIYYCTNYHFWGPGTTLTVS
VL: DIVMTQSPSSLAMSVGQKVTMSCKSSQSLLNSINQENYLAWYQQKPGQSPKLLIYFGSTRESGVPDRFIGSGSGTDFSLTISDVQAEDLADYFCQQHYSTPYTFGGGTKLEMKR
modifications: N-glycan on Asparagine No. 288 of the heavy chain
notes: The full chains are in the listing under one of these numberings; The hybridoma antibody 3F6-2-5 and the recombinant CHO product are treated as one molecule (same genes); also called purified anti-FVIII antibody protein; anti-coagulation factor VIII antibody
For B1, the dissociation constant (Kd) came to 55.3 nM, the off-rate constant (koff) turned out to be 0.00068 s⁻¹ and the kon was 12300 M⁻¹ s⁻¹.
